In paper PMC7949131:

How the values were obtained:
[1] = molecular target: rat HA-NK1R (neurokinin 1 receptor) (rat) (UniProt P14600); assay: high-content imaging fluorescent competition binding on cells; HEK-NK1R cells in 96-well plates, preincubated with Span or Span-Chol for 3.5 h, then 0.5 nM SP-TAMRA for a further 30 min (4 h in total), 37°C; granularity analysis, total cell binding (cell surface and intracellular); competitive binding, one site, fit logIC50
[2] = molecular target: rat HA-NK1R (neurokinin 1 receptor) (rat) (UniProt P14600)
[3] = molecular target: rat HA-NK1R (neurokinin 1 receptor) (rat) (UniProt P14600); remark: listed apart in the source
[4] = molecular target: rat HA-NK1R (neurokinin 1 receptor) (rat) (UniProt P14600); assay: high-content imaging fluorescent competition binding on cells; HEK-NK1R cells in 96-well plates, increasing concentrations of Span or Span-Chol with 0.5 nM SP-TAMRA, 30 min in total, 37°C; granularity analysis, total cell binding (cell surface and intracellular); competitive binding, one site, fit logIC50
[5] = molecular target: rat HA-NK1R (neurokinin 1 receptor) (rat) (UniProt P14600); remark: listed apart in the source

Chain of UniProt P14600 (P14600 whole entry): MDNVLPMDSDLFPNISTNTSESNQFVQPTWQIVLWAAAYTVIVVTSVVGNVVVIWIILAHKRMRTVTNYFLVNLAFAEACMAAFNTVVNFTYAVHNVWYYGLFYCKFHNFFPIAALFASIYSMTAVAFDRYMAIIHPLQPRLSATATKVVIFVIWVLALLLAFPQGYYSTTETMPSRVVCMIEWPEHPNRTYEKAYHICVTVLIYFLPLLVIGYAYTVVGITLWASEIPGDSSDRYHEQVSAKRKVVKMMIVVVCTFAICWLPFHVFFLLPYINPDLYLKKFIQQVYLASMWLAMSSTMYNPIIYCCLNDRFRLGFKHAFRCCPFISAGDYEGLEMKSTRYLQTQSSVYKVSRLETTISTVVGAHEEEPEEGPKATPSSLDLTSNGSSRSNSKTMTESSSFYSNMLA

pIC50 [1] | inhibition of Ca^2+ transients to 1 nM SP in HEK-NK1R cells, 30 min preincubation with antagonist (blocks SP with NK1R); pIC50 [2] | inhibition of Ca^2+ transients to 1 nM SP in HEK-NK1R cells, continuous 4 h incubation with antagonist (blocks SP with NK1R); pIC50 [3] | pIC50 [4] | inhibition of Ca^2+ transients to 1 nM SP in HEK-NK1R cells, pulsed administration (30 min antagonist, wash, 3.5 h; 4 h total) (blocks SP with NK1R); pIC50 [5] | Substance
5.55 | 4.87 | 5.11 | 5.99 |  | Spantide I (peptide)
6.5 | 6.25 | 6.36 | 6.28 | 6.15 | Spantide I conjugated to cholestanol via PEG linker (Span-Chol) (peptide)
